Substitutions are numbered along the chain they refer to. Values belong to the binder of their own block, whether it stands above or below them.
What was measured:
[1] = target: T1, human CEACAM1 expressed on CHO cells (human, UniProt P13688 35-526); assay: flow cytometry, transfected CHO cells, IgG1
T1 construct: whole, on cells; also called CHO-CEACAM1; CEACAM1 on cells
T1 sequence (looked up): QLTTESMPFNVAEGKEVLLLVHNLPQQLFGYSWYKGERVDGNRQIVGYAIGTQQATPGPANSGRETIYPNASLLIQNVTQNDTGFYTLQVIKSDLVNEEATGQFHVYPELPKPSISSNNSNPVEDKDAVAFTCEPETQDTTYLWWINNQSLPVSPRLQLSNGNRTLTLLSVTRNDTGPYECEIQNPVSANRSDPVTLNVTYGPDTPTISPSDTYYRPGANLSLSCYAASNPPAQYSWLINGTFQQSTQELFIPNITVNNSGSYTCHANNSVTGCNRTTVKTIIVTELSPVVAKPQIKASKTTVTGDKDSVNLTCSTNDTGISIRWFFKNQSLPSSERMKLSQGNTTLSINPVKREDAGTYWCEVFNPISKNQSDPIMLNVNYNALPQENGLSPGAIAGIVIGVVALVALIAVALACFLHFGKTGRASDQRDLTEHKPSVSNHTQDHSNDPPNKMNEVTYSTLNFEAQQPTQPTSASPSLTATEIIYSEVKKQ
Description: Binding of the antibodies was detected using fluorochrome-conjugated anti-human IgG and analysed using flow cytometry.

[2] = target: T2, human CEACAM6, recombinant (R&D Systems #3934-CM-050) (human, UniProt P40199 35-320); assay: ELISA, cross-reactivity to other CEA family members
T2 construct: also called hCEACAM-6
T2 sequence (looked up): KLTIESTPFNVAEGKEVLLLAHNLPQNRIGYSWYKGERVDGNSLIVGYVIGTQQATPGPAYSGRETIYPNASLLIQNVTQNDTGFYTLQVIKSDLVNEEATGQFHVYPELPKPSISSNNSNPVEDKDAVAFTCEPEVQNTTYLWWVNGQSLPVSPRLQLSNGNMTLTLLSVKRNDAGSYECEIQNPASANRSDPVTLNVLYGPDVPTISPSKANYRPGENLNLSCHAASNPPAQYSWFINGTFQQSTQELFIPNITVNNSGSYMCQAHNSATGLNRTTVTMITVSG
Procedure: (§1) 96-well plates were coated with 0.5 μg/mL antigen, hCEACAM-5 (4128-CM-050, R&D Systems), hCEACAM-1 (2244-CM-050, R&D Systems), hCEACAM-6(3934-CM-050, R&D Systems) or CEACAM-8 (9639-CM-050, R&D Systems) in PBS over night at 4° C. After washing with PBS/0.05% Tween 20 (PBST), the plates were blocked with PBST, 2% BSA for at least 30 minutes at room temperature before a second round of washing. […] After washing, plates were incubated with 50 μl detection antibody (0.5 μg/ml HRP conjugated goat anti human-kappa light chain, #STAR127P, AbD Serotec). Finally, a final round of washing was performed and bound complexes detected using SuperSignal Pico Luminescent as substrate and luminescence signals were measured using Fluostar Optima.

[3] = target: T3, human CEACAM1, recombinant (R&D Systems #2244-CM-050) (human, UniProt P13688 35-428); assay: as above
T3 construct: also called hCEACAM-1
T3 sequence (looked up): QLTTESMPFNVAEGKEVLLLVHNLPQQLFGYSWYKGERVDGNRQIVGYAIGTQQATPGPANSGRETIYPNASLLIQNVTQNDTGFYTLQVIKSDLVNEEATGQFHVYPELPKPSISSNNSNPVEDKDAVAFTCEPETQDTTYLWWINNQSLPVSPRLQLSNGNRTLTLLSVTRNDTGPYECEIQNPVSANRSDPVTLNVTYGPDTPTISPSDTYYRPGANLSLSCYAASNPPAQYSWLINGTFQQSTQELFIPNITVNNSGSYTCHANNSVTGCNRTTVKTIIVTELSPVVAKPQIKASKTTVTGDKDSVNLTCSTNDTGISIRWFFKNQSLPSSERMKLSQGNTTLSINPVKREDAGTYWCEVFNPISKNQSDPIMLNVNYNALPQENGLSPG
Procedure: as §1

[4] = target: T4, CEACAM-8, recombinant (R&D Systems #9639-CM-050) (UniProt P31997 35-320); assay: as above
T4 sequence (looked up): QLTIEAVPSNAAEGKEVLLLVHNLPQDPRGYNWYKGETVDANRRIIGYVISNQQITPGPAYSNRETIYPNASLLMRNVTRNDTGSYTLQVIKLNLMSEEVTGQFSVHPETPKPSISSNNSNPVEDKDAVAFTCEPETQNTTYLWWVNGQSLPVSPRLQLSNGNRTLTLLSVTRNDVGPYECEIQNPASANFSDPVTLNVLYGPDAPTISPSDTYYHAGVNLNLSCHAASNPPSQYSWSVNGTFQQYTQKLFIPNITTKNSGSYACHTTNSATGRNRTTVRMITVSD
Procedure: as §1

[5] = target: T5, human CEACAM5, recombinant (R&D Systems #4128-CM-050) (human, UniProt P06731 35-685); assay: Octet BLI, IgG1 captured on AHC tips, CEACAM5-His in solution, 1:1 fit
T5 construct: Bought; coated in ELISA and used as monomeric analyte in Octet; also called hCEACAM-5; Human CEACAM5-His; not shown: His tag
T5 sequence (looked up): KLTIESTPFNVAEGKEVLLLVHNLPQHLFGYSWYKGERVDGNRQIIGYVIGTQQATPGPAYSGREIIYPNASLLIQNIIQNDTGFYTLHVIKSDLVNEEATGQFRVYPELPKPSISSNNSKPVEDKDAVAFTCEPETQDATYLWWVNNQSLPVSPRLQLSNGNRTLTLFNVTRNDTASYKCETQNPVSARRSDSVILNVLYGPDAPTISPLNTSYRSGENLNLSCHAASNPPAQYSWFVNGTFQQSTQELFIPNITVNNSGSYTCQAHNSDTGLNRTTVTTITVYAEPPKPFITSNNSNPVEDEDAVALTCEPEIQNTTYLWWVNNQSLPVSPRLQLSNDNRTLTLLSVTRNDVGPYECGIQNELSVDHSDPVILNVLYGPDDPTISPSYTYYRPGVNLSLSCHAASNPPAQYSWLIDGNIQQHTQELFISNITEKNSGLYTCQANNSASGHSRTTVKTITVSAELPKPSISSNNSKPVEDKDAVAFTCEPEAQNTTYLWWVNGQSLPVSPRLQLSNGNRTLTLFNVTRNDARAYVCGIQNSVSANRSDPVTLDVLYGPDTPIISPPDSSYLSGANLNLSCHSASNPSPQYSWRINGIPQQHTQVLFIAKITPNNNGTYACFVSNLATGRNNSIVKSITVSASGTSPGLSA
Procedure: Kinetic measurements were performed in the Octet RED96 platform using several different setups. Monoclonal antibodies (listed in Table 9), serially diluted ½ starting at 100 nM, were captured to anti human IgG Fc Capture (AHC) Biosensor tips (Sartorius #18-5060). Human CEACAM5-His (R&D Systems #4128-CM-050) diluted in 1× kinetic buffer (Sartorius) at 100 nM was then added. Binding kinetics was studied in 1× kinetic buffer where association was allowed for 300 sec followed by dissociation for 600 sec. Sensor tips were regenerated with 10 mM Glycine pH 1.7. Data generated were referenced by subtracting blank or parallel buffer blank, the baseline was aligned to the y-axis, inter-step correction by alignment against dissociation was performed and the data was smoothed by Savitzky-Golay filter in the data analysis software (v9.0.0.14). The processed data was fitted using a 1:1 Langmuir binding model with R² or X² as a measurement of fitting accuracy.

[6] = target: T5, human CEACAM5, recombinant (R&D Systems …); assay: ELISA, antigen coated at 0.5 µg/mL, bsAb titrated, anti-human kappa-HRP, luminescence
Procedure: (§2) 96-well plates were coated with 0.5 μg/mL antigen, hCEACAM-1 (2244-CM-050, R&D Systems), hCEACAM-5 (4128-CM-050, R&D Systems), hCEACAM-6 (3934-CM-050, R&D Systems) or CEACAM-8 (9639-CM-050, R&D Systems) in PBS over night at 4° C. After washing in PBS/0.05% Tween 20 (PBST), the plates were blocked with PBST, 2% BSA for at least 30 minutes at room temperature before a second round of washing. RUBY bsAbs, diluted in PBST, 0.5% BSA, were then added and allowed to bind for at least 1 hour at room temperature. […] Finally, a final round of washing was performed and bound complexes detected using SuperSignal Pico Luminescent as substrate and luminescence signals were measured using Fluostar Optima.

[7] = target: T6, biotinylated human CD40-mouse Fc (Ancell #504-030) (human, UniProt P25942 21-193, biotinylated (site not stated)); assay: dual-target ELISA: hCEACAM-5 coated, bsAb titrated, detected with biotinylated hCD40-muIg and streptavidin-HRP, luminescence; signal needs both targets bound
T6 construct: Bought; also called hCD40-muIg; CD40mFc-biotin; not shown: mouse Ig Fc
T6 sequence (P25942 21-193): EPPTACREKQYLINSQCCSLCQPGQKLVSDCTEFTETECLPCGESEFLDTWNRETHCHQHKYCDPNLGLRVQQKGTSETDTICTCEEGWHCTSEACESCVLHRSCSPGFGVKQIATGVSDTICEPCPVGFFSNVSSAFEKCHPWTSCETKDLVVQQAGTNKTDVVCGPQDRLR
Procedure: as §2

[8] = target: T5, human CEACAM5, recombinant (R&D Systems …); assay: as above
Procedure: as §2

B1: AC_05060 (antibody, human IgG1, kappa, V domains shown)
VH: EVQLLESGGGLVQPGGSLRLSCAASGFTFGSYYMSWVRQAPGKGLEWVSGISGYGYYTGYADSVKGRFTISRDNSKNTLYLQMNSLRAEDTAVYYCARHGYGVIDYWGQGTLVTVSS
VL: DIQMTQSPSSLSASVGDRVTITCRASQSIRDYLNWYQQKPGKAPKLLIYAASSLQSGVPSRFSGSGSGTDFTLTISSLQPEDFATYYCQQGTFPFTFGQGTKLEIKR
binding result [1]: no binding (tested: 0.5 and 5 µg/ml)
binding result [2]: no binding (tested: 0.4 µg/ml)
binding result [3]: no binding (tested: 0.4 µg/ml)
binding result [4]: no binding (tested: 0.4 µg/ml)
Kd [5]: 6 nM
koff [5]: 0.002 s⁻¹
kon [5]: 400000 M⁻¹ s⁻¹

B3: AC_05061 (antibody, human IgG1, kappa, V domains shown)
VH: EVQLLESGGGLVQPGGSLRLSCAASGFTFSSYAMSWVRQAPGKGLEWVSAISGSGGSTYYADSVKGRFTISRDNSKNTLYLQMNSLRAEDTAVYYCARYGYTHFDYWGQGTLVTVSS
VL: DIQMTQSPSSLSASVGDRVTITCRASQSISSYLNWYQQKPGKAPKLLIYAASSLQSGVPSRFSGSGSGTDFTLTISSLQPEDFATYYCQQGAYVPYTFGQGTKLEIKR
binding result [1]: no binding (tested: 0.5 and 5 µg/ml)
binding result [2]: no binding (tested: 0.4 µg/ml)
binding result [3]: no binding (tested: 0.4 µg/ml)
binding result [4]: no binding (tested: 0.4 µg/ml)
Kd [5]: 20 nM
koff [5]: 0.002 s⁻¹
kon [5]: 100000 M⁻¹ s⁻¹

Next, values leading:

binding result [1]: no binding (tested: 0.5 and 5 µg/ml)
binding result [2]: no binding (tested: 0.4 µg/ml)
binding result [3]: no binding (tested: 0.4 µg/ml)
binding result [4]: no binding (tested: 0.4 µg/ml)
Kd [5]: 0.4 nM
koff [5]: 6e-05 s⁻¹
kon [5]: 100000 M⁻¹ s⁻¹
B2: AC_05064 (antibody, human IgG1, kappa, V domains shown)
VH: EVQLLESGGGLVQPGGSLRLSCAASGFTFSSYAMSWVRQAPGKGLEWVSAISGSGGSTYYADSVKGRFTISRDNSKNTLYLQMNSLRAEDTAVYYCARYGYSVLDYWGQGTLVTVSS
VL: DIQMTQSPSSLSASVGDRVTITCRASQSISSYLNWYQQKPGKAPKLLIYAASSLQSGVPSRFSGSGSGTDFTLTISSLQPEDFATYYCQQYPWYFPYTFGQGTKLEIKR

binding result [1]: no binding (tested: 0.5 and 5 µg/ml)
binding result [2]: no binding (tested: 0.4 µg/ml)
binding result [3]: no binding (tested: 0.4 µg/ml)
binding result [4]: no binding (tested: 0.4 µg/ml)
Kd [5]: 0.9 nM
koff [5]: 0.002 s⁻¹
kon [5]: 2e+06 M⁻¹ s⁻¹
B4: AC_05062 (antibody, human IgG1, kappa, V domains shown)
VH: not shown
VL: B3 VL with S28A, S31G, A50S, G91S, A92Y, Y93S, V94T

EC50 (read off the curve) [6]: ~1 nM
binding result [7]: binds
EC50 (read off the curve) [8]: ~3 nM
B5: Multi39 (bispecific antibody)
heavy 1: not shown
light: not shown
heavy 2: EVQLLESGGGLVQPGGSLRLSCAASGFTFYDHAMSWVREAPGKGLEWVSAISGSYGSTGYADSVKGRFTISRDNSKNTLYLQMNSLRAEDTAVYYCARWGGWAGDIDYWGQGTLVTVSSASTKGPSVFPLAPSSKSTSGGTAALGCLVKDYFPEPVTVSWNSGALTSGVHTFPAVLQSSGLYSLTSVVEVPSSSLGTQTYICNVNHKPSNTKVDKKVEPKSC
notes: Optimised RUBY format, CD40xCEACAM5; copies: 2 + 2 + 2

From patent US20260146107A1 (ALLIGATOR BIOSCIENCE, published 2026)
